Marks after values point to notes of the source that are not given here.
Key:
SW480 cells = experiment: Inhibition of proliferation (Cell Titer Glo); assay type: cell-based, human; conditions: 72h, 100 μg/ml antibody or *100 ng/ml TWEAK
Description: (§1) Therefore cells were plated in 96well plates in 750 assay medium (growth media from Table 21, plus 100 ng/ml IFN gamma for 786-O cells) at the following cell numbers: WiDr cells 3000 cells/well, 786-O cells 2500 cells/well. 24 h later cells were incubated with anti-TWEAKR antibodies (see Table 26), recombinant human TWEAK or isotype control IgG (not shown) at the indicated concentrations (antibodies from 0.03-300 μg/ml, TWEAK 100 or 300 ng/ml). At the time of antibody addition cell viability was determined in sister plates (time point zero): therefore 750/well CTG solution (Promega Cell Titer Glo solution (catalog # G755B and G756B) was added to the cells, incubated for 10 minutes and luminescence was read on a Victor V (Perkin Elmer). 96 h after incubation with the agents, cell viability was determined in the assay plates by addition of 100 μl/well CTG solution, 10 min incubation and reading of luminescence. Proliferation in control wells was calculated by subtracting time zero values from the luminescence values in the untreated control wells. % of cell proliferation was calculated in the compound treated wells as compared to the untreated control wells.
(§2) To evaluate, whether this strong anti-proliferative activity can also be observed in a broader cell panel, in addition LOVO, NCI-H1975, SW-480 (all 3000 cells/well), HT-29 (4000 cells/well), A253 and SK-OV3 (both 2500 cells/well) cells were incubated with 100 μg/ml anti-TWEAKR antibodies or TWEAK ligand for the time periods as indicated in Table 27. All cells were seeded in the growth media indicated in Table 21 and for all cells except for WiDr cells 100 ng/ml IFNgamma was added to the assay medium when seeding the cells. The percentage of growth inhibition for treated cells as compared to proliferation in untreated control cells was measured and calculated as described above. As shown in Table 27 the antibodies of the current invention are more efficacious as compared to other known antibodies in inhibiting proliferation of various cancer cell lines at 100 μg/ml. In most experiments the antibodies of the current invention also show equal or stronger efficacy as compared to 100-300 ng/ml TWEAK ligand. Thus, the antibodies described in this invention are unique in their activity to induce apoptosis and proliferation inhibition in a broad panel of cancer cell lines.

HT-29 cells [1] = experiment: Inhibition of proliferation (Cell Titer Glo); assay type: cell-based, human; conditions: 24h, 100 μg/ml antibody or **300 ng/ml TWEAK
Description: as §1, §2

A253 cells [2] = experiment: Inhibition of proliferation (Cell Titer Glo); assay type: cell-based, human; conditions: 72h, 100 μg/ml antibody or **300 ng/ml TWEAK
Description: as §1, §2

Lovo cells = experiment: Inhibition of proliferation (Cell Titer Glo); assay type: cell-based, human; conditions: 72h, 100 μg/ml antibody or *100 ng/ml TWEAK
Description: as §1, §2

NCI-H1975 cells = experiment: Inhibition of proliferation (Cell Titer Glo); assay type: cell-based, human; conditions: 72h, 100 μg/ml antibody or *100 ng/ml TWEAK
Description: as §1, §2

786-O cells [3] = experiment: Inhibition of proliferation (Cell Titer Glo); assay type: cell-based, human; conditions: 96h, 100 μg/ml antibody or *100 ng/ml TWEAK
Description: as §1, §2

TWEAKR = TWEAKR (Homo sapiens, UniProt Q9NP84); conditions: published data; read-out: KD / binding affinity to TWEAKR (published); cited from earlier work
A253 cells [4] = experiment: Caspase 3/7 activation; assay type: cell-based, human; conditions: 100 μg/ml antibody or 300 ng/ml TWEAK, 24 h, IFN gamma
Description: (§3) To determine the level of apoptosis induction, Caspase-3/7 activation was measured after treatment of cancer cells with TWEAK or agonistic anti-TWEAKR antibodies. Therefore HT-29 cells were plated at a density of 4000 cells/75 μl/well in 96 well plates in assay medium (DMEM/Ham's F12, Biochrom #FG4815+10% FCS+100 ng/ml IFN gamma (R&D Systems #285-IF)). 24 h later cells were incubated with antibodies to the TWEAKR (see Table 24), recombinant human TWEAK (R&D, #1090-TW-025/CF, E. coli derived recombinant soluble human TWEAK, Arg93-His249 of accession # Q4ACW9, Entrez Gene ID 8742, with an N-terminal Met and 6-His tag) or corresponding isotype control IgG at various concentrations as indicated. After 24 h incubation with the antibodies, Caspase 3/7 activity was determined by adding 100 μl/well Caspase 3/7 Solution (Promega, #G8093) to the cells, incubation for one hour and reading of luminescence on a VICTOR V (Perkin Elmer).
(§4) To determine whether the strong efficacy of the antibodies of the invention also holds true in other cell lines than HT-29, the capacity to induce Caspase 3/7 by anti-TWEAKR antibodies as compared to recombinant human TWEAK was evaluated in a panel of cell lines. For this analysis the following conditions were used: WiDr cells were plated at 3000 cells/well and incubated for 48 h in the presence of TWEAK or the described antibodies, A253 cells were plated at 2500 cells/well and incubated for 24 h, NCI-H322 cells were plated at 5000 cells/well and incubated for 48 h and 786-O cells were plated at 2500 cells/well and incubated for 48 h. The cells were plated in the media as described in Table 21, for A253, NCI-H322 and 786-O cells 100 ng/ml IFN gamma (R&D Systems #285-IF) was added. 24 h after plating antibodies at 100 μg/ml or TWEAK at 300 ng/ml (100 ng/ml TWEAK for NCI-H322 cells) were added and the cells were further incubated for the time periods indicated above. At the end of the incubation time Caspase 3/7 activity was determined as described for HT-29 cells. The fold induction of Caspase 3/7 was calculated as compared to untreated cells.

786-O cells [5] = experiment: Caspase 3/7 activation; assay type: cell-based, human; conditions: 100 μg/ml antibody or 300 ng/ml TWEAK, 48 h, IFN gamma
Description: as §3, §4

NCI-H322 cells = experiment: Caspase 3/7 activation; assay type: cell-based, human; conditions: 100 μg/ml antibody or *100 ng/ml TWEAK, 48 h, IFN gamma
Description: as §3, §4

WiDr cells = experiment: Caspase 3/7 activation; assay type: cell-based, human; conditions: 100 μg/ml antibody or 300 ng/ml TWEAK, 48 h
Description: as §3, §4

HT-29 cells [6] = experiment: Caspase 3/7 activation; assay type: cell-based, human; conditions: 100 μg/ml antibody or 300 ng/ml TWEAK, 24 h, IFN gamma
Description: as §3

B1: TWEAK: endogenous TWEAKR ligand; E. coli derived recombinant soluble human TWEAK, Arg93-His249 (R&D #1090-TW-025/CF) (protein, UniProt O43508 93-249, looked up, fragment)
chain: RSAPKGRKTRARRAIAAHYEVHPRPGQDGAQAGVDGTVSGWEEARINSSSPLRYNRQIGEFIVTRAGLYYLYCQVHFDEGKAVYLKLDLLVDGVLALRCLEEFSATAASSLGPQLRLCQVSGLLALRPGSSLRIRTLPWAHLKAAPFLTYFGLFQVH
% Inhibition of proliferation (SW480 cells): 0%*
% Inhibition of proliferation (HT-29 cells [1]): 98%**
% Inhibition of proliferation (A253 cells [2]): >100%**
% Inhibition of proliferation (Lovo cells): 53%*
% Inhibition of proliferation (NCI-H1975 cells): 56%*
% Inhibition of proliferation (786-O cells [3]): 12%*
Kd (TWEAKR): 0.8 to 2.4 nM
Fold induction of Caspase 3/7 (A253 cells [4]): 1.53 ± 0.13
Fold induction of Caspase 3/7 (786-O cells [5]): 1.45 ± 0.05
Fold induction of Caspase 3/7 (NCI-H322 cells): 1.39 ± 0.01
Fold induction of Caspase 3/7 (WiDr cells): 1.22 ± 0.02
Fold induction of Caspase 3/7 (HT-29 cells [6]): 2.31 ± 0.29

Reference: patent US20160237160A1, “ANTI-TWEAKR ANTIBODIES AND USES THEREOF” (BAYER PHARMA AKTIENGESELLSCHAFT, priority 2013, published 2016)
